Test results taken from patent US20220177583A1.

What was measured:
[1] = target: human CLDN6 fused to GFP, expressed on engineered HEK293T cells (human) (UniProt P56747); assay: FACS, 293T clone with human CLDN6, secondary antibody alone (negative control, background; column 1.5 ug Ab)
[2] = target: human CLDN6 fused to GFP, expressed on engineered HEK293T cells (human) (UniProt P56747); assay: FACS on 293T CLDN6 mGFP Clone A11 cells, secondary antibody only; number from the data table under the bars
[3] = target: human CLDN6, endogenously expressed on cancer cell lines (human) (UniProt P56747); assay: FACS on OVCA429 cells, sample 1: no 1o, 2nd antibody NBP1-51902, 2o wash 2x
[4] = target: human CLDN6, endogenously expressed on cancer cell lines (human) (UniProt P56747); assay: FACS on ARK2 cells, secondary antibody only; number from the data table under the bars
[5] = target: T1, mouse CLDN6 fused to GFP, expressed on engineered HEK293T cells (mouse) (UniProt Q9Z262); assay: FACS, 293T clone with mouse CLDN6, secondary antibody alone (negative control, background)
T1 sequence (looked up): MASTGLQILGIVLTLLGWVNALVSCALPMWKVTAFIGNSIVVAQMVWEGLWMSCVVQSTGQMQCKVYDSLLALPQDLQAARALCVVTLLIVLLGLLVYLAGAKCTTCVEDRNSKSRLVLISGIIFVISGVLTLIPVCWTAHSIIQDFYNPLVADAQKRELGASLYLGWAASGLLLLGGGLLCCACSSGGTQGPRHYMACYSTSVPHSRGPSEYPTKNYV

[6] = target: human CLDN6, endogenously expressed on cancer cell lines (human) (UniProt P56747); assay: FACS, ARK2 cells, secondary antibody alone (negative control, background; column 1.5 ug)
[7] = target: human CLDN6, endogenously expressed on cancer cell lines (human) (UniProt P56747); assay: flow cytometry on UMUC4 cells (Positive Cell Line), secondary antibody alone; the same number stands under the 0.1µg and the 1µg head
[8] = target: human CLDN6 fused to GFP, expressed on engineered HEK293T cells (human) (UniProt P56747); assay: FACS, 293T clone with human CLDN6, secondary antibody alone (negative control, background; column 0.3 ug Ab)
[9] = target: human CLDN6, endogenously expressed on cancer cell lines (human) (UniProt P56747); assay: FACS, ARK2 cells, secondary antibody alone (negative control, background; column 0.3 ug)
[10] = target: human CLDN6, endogenously expressed on cancer cell lines (human) (UniProt P56747); assay: FACS, OVCA429 cells, secondary antibody alone (negative control, background; column 1.5 ug)
[11] = target: human CLDN6 fused to GFP, expressed on engineered HEK293T cells (human) (UniProt P56747); assay: flow cytometry on HEK293T CLDN6-mGFP A11 cells (Positive Artificial OE Cell Line), secondary antibody alone; the same number stands under the 0.1µg and the 1µg head

Chain of human CLDN6, endogenously expressed on cancer cell lines (human) (P56747 whole entry, the tested form may be a part): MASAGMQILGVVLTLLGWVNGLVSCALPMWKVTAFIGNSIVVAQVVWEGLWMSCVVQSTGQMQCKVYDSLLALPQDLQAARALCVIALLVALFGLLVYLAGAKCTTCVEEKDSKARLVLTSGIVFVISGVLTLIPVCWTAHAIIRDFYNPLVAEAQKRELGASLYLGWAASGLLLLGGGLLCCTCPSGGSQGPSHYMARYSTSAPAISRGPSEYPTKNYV

Work on “2nd Ab only (secondary detection antibody alone, negative control)” yielded an FACS signal [1] of 768, an FL4H Singlets in Viable cells [2] of 9420 and a Dylight 649 Signal by C6 [3] of 1210. The FL4H Singlets in Viable cells [4] was 9130, the FACS signal [5] was 1060 and the FACS signal [6] was 1350. It also gave a flow cytometry signal [7] of 1110, an FACS signal [8] of 768 and an FACS signal [9] of 1350. For the same substance, the FACS signal [10] was 886 and the flow cytometry signal [11] was 1240.
